Results published in the supplement of paper PMC11865577.

Experiments:
Assay in all cases: pull-down binding Z-score (relative to library population); higher = stronger binding
Details in all cases: RNA library: Library-2
[1] = tested on: TO-3-N3 (biotin conjugate)
Outline: (§1)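 Streptavidin beads with 100 pmol of biotin-conjugated small molecule were incubated for 60 min at 25 °C with 1 μg of heat-folded Cy5- or Cy3-end-labelled RNA library in phosphate/NaCl/KCl buffer. Bound RNA was eluted in hot SDS after three washes and hybridised to a DNA barcode microarray at 55.5 °C for 20 h. Each binding score is a library-referenced Z-score, computed after beads-only subtraction and a trimmed mean of barcoded replicate probes.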

[2] = tested on: TO-3-N3-2 (biotin conjugate)
Outline: as §1

[3] = tested on: TO-N3 (biotin conjugate)
Outline: as §1

[4] = tested on: TO-N3-2 (biotin conjugate)
Outline: as §1

Sequence | pull-down binding Z-score [1] | pull-down binding Z-score [2] | pull-down binding Z-score [3] | pull-down binding Z-score [4]
UAUUUCAUAACAGAUGCGCAAACAGGUUCAUCUAAGUGUGUGUGUUCUGUUAUUGAUUUA | -1.06 | -0.188 | -1.16 | -0.209
CAGAGUCGUAUUUGUCUUAUGGGCACAUGGCUUUG [SHAPE_invivo_SARS-CoV-2_Motif_350] | 0.361 | -0.171 | 0.131 | -0.215
CAACGUAAGUUG [DMSMaPseq_invitro_SARS-CoV-2_Motif_215] | -0.34 | -0.477 | -0.732 | -1.6
UAAGGAGAGUGUUCAGACAUUCUUUAAGCUUG [DMSMaPseq_invitro_SARS-CoV-2_Motif_43] | -0.408 | -0.244 | -0.507 | -0.426
AGUGAGUACACUGGUAAUUACCAGUGUGGUCACU [SHAPE_invivo_SARS-CoV-2_Motif_119] | 0.0351 | 0.0249 | -0.332 | -1.01
UCUGUUUGGAACUUUAAUUUUAGCCAUGGCAGA | -0.689 | -0.0381 | -0.72 | 0.0796
ACAGGGACUACUCCCACCCAAGAAUAGCAUAGAUGCCUUCAAACUCAACAUUAAAUUGUUGGGUGUUGGUGGCAAACCUUGUAUCAAAGUAGCCACUGU | -0.466 | 0.116 | -0.503 | -0.183
UCUUUCAUGGGA [DMSMaPseq_invitro_SARS-CoV-2_Motif_300] | 0.66 | 0.0379 | 0.363 | -0.26
UGGUACUGAAGAUGAUUACCA [SHAPE_invitro_SARS-CoV-2_Motif_57] | -0.272 | 0.306 | -0.278 | 0.00913
GGUCAGAAUGAUC [IAV_invivo_NP_5_Motif_12+IAV_invivo_NP_5_Motif_12] | -0.394 | -0.0405 | -0.601 | -0.437
UCUCCUCAUUUACUGUGAAUGUGAGGGGA [IAV_invivo_PB2_1_Motif_31+IAV_invivo_PB2_1_Motif_31] | -0.428 | -0.219 | -0.72 | -0.905
UCAUUAAUUGA | -0.712 | -0.664 | -1.27 | -1.65
UAGUCCUGUUGCACUACGACAGAUGUCUUGUGCUGCCGGUACUA [DMSMaPseq_invitro_SARS-CoV-2_Motif_226] | -0.727 | -0.381 | -0.821 | -0.478
CUGUCAUGGAAGCAAGUACUGGCAG [IAV_invivo_PA_3_Motif_16+IAV_invivo_PA_3_Motif_16] | 0.591 | 0.12 | 0.596 | 0.323
GGAAUAAGUACGAUACUUACCUG [U1snRNP5ss-5] | -0.215 | 0.089 | 0.464 | 1.56
GUGAUAGAGCCAUGCCUAACAUGCUUAGAAUUAUGGCCUCAC | 0.323 | 0.0068 | 0.179 | -0.0566
UCCUUUGACAUGAGUAAUGAAGGAUCUUAUUUCUUCGGAGACAAUGCAGAGGA [IAV_invivo_NP_5_Motif_26+IAV_invivo_NP_5_Motif_26] | -0.638 | -0.286 | -0.711 | -0.0358
CAAGAGAAGUGGGUUUUGUCGUGCCUGGUUUGCCUGGCACGAUAUUACGCACAACUAAUG | -0.455 | -0.209 | -0.438 | -0.297
GCACCAUUAUUAUCAGCUGGUAUUUUUGGUGC | -0.619 | -0.502 | -0.921 | -1.18
UCUAAAUGAAACUCUUGUUACAAUGCCACUUGGCUAUGUAACACAUGGCUUAAAUUUGGA | -1.01 | -0.364 | -1.16 | -1.03
GGCAUCAUAUGGGUUGCAACUGAGGGAGCCUUGAAUACACCAAAAGAUCACAUUGGCACCCGCAAUCCUGCUAACAAUGCU [DMSMaPseq_invitro_SARS-CoV-2_Motif_513] | -0.63 | -0.241 | -0.253 | 0.342
CUUUUGAAGAAG [SHAPE_invivo_SARS-CoV-2_Motif_195] | -0.686 | -0.577 | -1.16 | -1.33

Sequence | pull-down binding Z-score [1] | pull-down binding Z-score [2] | pull-down binding Z-score [3] | pull-down binding Z-score [4]
AACUGAAAGUAAACCUUCAGUU | -0.172 | -0.384 | -0.401 | -1.3
AUGAGGUUUAGAAGAGCUUUUGGUGAAUACAGUCAUGUAGUUGCCUUUAAUACUUUACUAUUCCUUAU | -0.216 | 0.205 | -0.296 | -0.689
GACAUGUUCCUCGGAACUUGUC | -0.926 | -0.631 | -1.35 | -0.965
CCAGUAUGGUGG [IAV_invivo_PB1_2_Motif_36+IAV_invivo_PB1_2_Motif_36] | -0.26 | -0.471 | -0.423 | -0.372
GGCUAUGGUUUCCAGAGCC [IAV_invivo_PB1_2_Motif_37+IAV_invivo_PB1_2_Motif_37] | 0.417 | -0.179 | 0.285 | -0.356
CAUGCUGAUUUUGACACAUGGUUUAGCCAGCGUG [DMSMaPseq_invitro_SARS-CoV-2_Motif_160] | -0.604 | -0.409 | -0.64 | -0.276
GACAGCAGAUAUAGUUGUC | 0.607 | 0.368 | 0.331 | -0.0659
GGAGAAGAACCC [IAV_invivo_PB2_1_Motif_3+IAV_invivo_PB2_1_Motif_3] | -0.254 | -0.0996 | -0.17 | 0.0437
AUUAUGUGUACCUUCCUUACCCAGAUCCAUCAAGAAUCCUAGGGGCCGGCUGUUUUGUAGAUGAUAUCGUAAAAACAGAUGGUACACUUAUGAU [DMSMaPseq_invitro_SARS-CoV-2_Multi_47_ComplexLevel_1] | -0.234 | 0.0322 | 0.0551 | 0.511
GGGUGGGUGGGUGGGUGGGUGGGU [G4_r(GGGU)6] | 9.01 | 10.9 | 7.43 | 5.53
GAGGUGAGCAGGAUACUUACCUG [U1snRNP5ss-16] | -0.342 | -0.182 | 0.0508 | 0.602
AAACGAACUAAAUAUUAUAUUAGUUUUUCUGUUU | -0.375 | 0.491 | -0.211 | -0.324
CUCAGAGUAGAAAUUUACAAGAAUUUAAACCCAGGAG [DMSMaPseq_invitro_SARS-CoV-2_Motif_359] | -0.646 | -0.119 | -0.463 | -0.531
UGGGGACCAGGAACUAAUCAGACAAGGAACUGAUUACAAACAUUGGCCGCAAAUUGCACAAUUUGCCCCCA | -0.075 | 0.0998 | 0.312 | 0.83
AAGAAGCUGCGCUGUGCACCUUUUU [DMSMaPseq_invitro_SARS-CoV-2_Motif_178] | -0.433 | -0.354 | -0.0759 | 0.126
UGAACCACAAAUCA [SHAPE_invitro_SARS-CoV-2_Motif_451] | -0.745 | -0.565 | -1.04 | -0.906
GCACAUAUAUCUACUAUUGGUGUUUGUUCUAUGACUGACAUAGCCAAGAAACCAACUGAAACGAUUUGUGC | -0.793 | -0.32 | -0.457 | 0.00798
ACAGAGACUGAUAGUAAGUUCUCUGU [IAV_invivo_NA_6_Motif_16+IAV_invivo_NA_6_Motif_16] | -0.363 | -0.328 | -0.696 | -1.08
CAUGUGGUAGUGUUGGUUUUAACAUAGAUUAUGACUGUGUCUCUUUUUGUUACAUGCACCAUAUG | 1.54 | 0.0495 | 1.48 | -0.00779
GGGGAUCUAUCAGAUUCUGGCGAUCUACUCAACUGUCGCCAGUUCACUGGUGCUUUUGGUCUCC [IAV_invivo_HA_4_Motif_19+IAV_invivo_HA_4_Motif_19] | 0.57 | 0.123 | 0.629 | 0.69
CACAAGGCAGAUGGGCUAUAUAAACGUUUUCGCUUUUCCGUUUACGAUAUAUAGUCUACUCUUGUG | -0.81 | -0.5 | -0.787 | -0.455
GGGAAGGCGAAAGACC [IAV_invivo_PA_3_Motif_21+IAV_invivo_PA_3_Motif_21] | 0.143 | 0.289 | 0.603 | 1.12

Sequence | pull-down binding Z-score [1] | pull-down binding Z-score [2] | pull-down binding Z-score [3] | pull-down binding Z-score [4]
GAUUCAGAUCUUAAUGACUUUGUC [SHAPE_invivo_SARS-CoV-2_Motif_393] | -0.246 | -0.439 | -0.539 | -0.794
GCGCUGCCAGAAACUGGCAAAGCGC [bulge-AA] | -0.184 | -0.00126 | -0.403 | -0.0432
UCUUUAAGGAAGGAAGUUCUGUUGAAUUAAAACACUUCUUCUUUGCUCAGGA [DMSMaPseq_invitro_SARS-CoV-2_Motif_265] | -0.904 | -0.179 | -1.23 | -0.953
AAUGUUUUAUUCUCUACAGUGUUCCCACUUACAAGUUUUGGACCACUAGUGAGAAAAAUAUU [DMSMaPseq_invitro_SARS-CoV-2_Motif_260] | -0.786 | -0.434 | -0.882 | -0.866
GUCCUAAAGUGAAGUAUUUAUACUUUAUUAAAGGAU [SHAPE_invivo_SARS-CoV-2_Motif_244] | -0.854 | -0.605 | -1.19 | -1.51
UAGGUUUUUCUACAGGUGUUAACCUA [SHAPE_invitro_SARS-CoV-2_Motif_336] | -0.603 | -0.426 | -0.981 | -0.856
AAUUAUAAAUUACCAGAUGAUUUUACAGGCUGCGUUAUAGCUUGGAAUUCUAACAAUCUUGAUUCUAAGGUUGGUGGUAAUUAUAAUU | -0.932 | -0.123 | -0.993 | -0.712
GGGUAGUGGUGAGCAUUGACC [IAV_invivo_PB2_1_Motif_22+IAV_invivo_PB2_1_Motif_22] | 1.17 | 0.601 | 1.28 | 0.804
GCGCUGCCAGAAACUGGCUUAGCGC [bulge-UU] | 0.63 | -0.0172 | 0.691 | 0.338
GUUGUCGCUUCCAAGAAAAGGACGAAGAUGACAAU [SHAPE_invitro_SARS-CoV-2_Motif_248] | 0.276 | 0.224 | 0.141 | 0.292
UGGUUUCCAACCCACUAAUGGUGUUGGUUACCA | -0.662 | -0.442 | -1.05 | -1.18
UCGUGUUAAAAAUCUGAAUUCUUCUAGAGUUCCUGAUCUUCUGGUCUAAACGAACUAAAUAUUAUAUUAGUUUUUCUGUUUGGAACUUUAAUUUUAGCCAUGG | -0.635 | -0.138 | -0.609 | -0.59
ACCCUCAAAAAGAGAUGGCAACUAGCACUCUCCAAGGGU | 0.217 | 0.0435 | 0.0275 | -0.427
GUGAUGAACUGAAGAUUAAUGCGGCUUGUAGAAAGGUUCAACACAUGGUUGUUAAAGCUGCAUUAUUAGCAGACAAAUUCCCAGUUCUUCAC | -0.0396 | 0.69 | 0.101 | 0.059
AACGGGGCGGGCCUGGGCGGGGUAA [G4_2A2_VEGF-Pu22-del] | 8.83 | 11 | 7.15 | 5.22
GCUUGUCACACCGUUUCUAUAGAUUAGCUAAUGAGUGUGCUCAAGU | -0.601 | -0.356 | -0.0415 | 0.588
ACCUUUAAUUGAAUUGUGCGUGGAUGAGGCUGGUUCUAAAUCACCCAUUCAGUACAUCGAUAUCGGU [SHAPE_invivo_SARS-CoV-2_Motif_532] | -0.881 | -0.862 | -1.07 | -0.962
UGGCAUGGAAGUCA [DMSMaPseq_invitro_SARS-CoV-2_Motif_525] | 0.0287 | -0.289 | -0.262 | -0.318
CAGUUUACUCACACCUUUUGCUCGUUGCUGCUG | -0.164 | -0.285 | -0.0216 | 0.0199
UAUGUCUGAAGCAAAAUGUUGGACUGAGACUGACCUUACUAAAGGACCUCAUGAAUUUUGCUCUCAACAUA | 0.0274 | -0.402 | 0.246 | -0.671
GUGCUAAUGACCCUGUGGGUUUUACAC [SHAPE_invivo_SARS-CoV-2_Motif_252] | 0.178 | -0.275 | 0.0247 | -0.465
